In patent publication US20050032064, “Method and device for identifying substances capable of modulating adipocyte differentiation” (published 2005):

Legend:
[1] = molecular target: PPAR GAMMA / RXR ALPHA heterodimer (Mus musculus, UniProt P37238;P28700 P37238:1-505,P28700:1-467); experiment: EMSA; competed by excess (10 or 100-fold tested) unlabeled Rev-DR2; settings: tags: pSG5-mPPAR-gamma and pSG5-mRXR-alpha, rabbit reticulocyte lysate; label: end-labeled
Method: Binding competition experiments were performed by adding a 0, 10 or 100-fold excess of unlabeled Rev-DR2 oligonucleotide.
(§1) The pSG5-mPPAR-gamma, pSG5-mRXR-alpha and pSG5-hRev-erb alpha plasmids were transcribed in vitro with T7 polymerase and translated with the rabbit reticulocyte lysate system (Promega, Madison, Wis., USA). Gel shift experiments with REV-ERB ALPHA, PPAR GAMMA and/or RXR ALPHA proteins were carried out as previously described (Gervois, P. et al., Molecular Endocrinology 1999, 13(3): 400-409; Vu-Dac, N. et al., J. Biol. Chem. 1994, 269(49): 31012-31018). For the competition experiments, increasing quantities of the indicated unlabeled probe were added immediately before adding the labeled oligonucleotide. The complexes were resolved in 5% polyacrylamide gels using […] buffer (90 mM borate, 2.5 mM EDTA, pH 8.3) at room temperature. Gels were dried and exposed overnight at −70° C. on Rayon-X film (XOMAT-AR, Eastman Kodak, Rochester, N.Y., USA).
Lastly, binding of the PPAR GAMMA receptor to the Rev-DR2 site was studied. A test to measure electrophoretic mobility (gel shift or electrophoretic mobility shift assay) was carried out using PPAR GAMMA and RXR ALPHA proteins synthesized in vitro. […]

RXR ALPHA = molecular target: T1, RXR ALPHA (Mus musculus, UniProt P28700 P28700:1-467); experiment: EMSA; RXR alpha alone; settings: tags: pSG5-mRXR-alpha, rabbit reticulocyte lysate; label: end-labeled
T1 sequence: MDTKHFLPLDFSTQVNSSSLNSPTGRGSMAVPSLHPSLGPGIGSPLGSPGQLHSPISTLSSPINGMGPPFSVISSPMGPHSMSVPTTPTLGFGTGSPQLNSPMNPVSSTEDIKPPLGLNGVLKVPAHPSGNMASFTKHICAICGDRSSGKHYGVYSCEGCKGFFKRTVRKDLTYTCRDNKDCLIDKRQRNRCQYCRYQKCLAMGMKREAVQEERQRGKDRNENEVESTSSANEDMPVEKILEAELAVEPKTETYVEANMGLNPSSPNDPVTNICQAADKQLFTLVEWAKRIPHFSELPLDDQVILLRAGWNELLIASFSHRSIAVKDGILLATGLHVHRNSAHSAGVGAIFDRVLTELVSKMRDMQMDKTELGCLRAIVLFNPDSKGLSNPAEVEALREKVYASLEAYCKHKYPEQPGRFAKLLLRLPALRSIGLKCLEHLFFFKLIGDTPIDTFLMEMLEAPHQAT
Method: (§2) The electrophoretic gel shift studies were carried out by using the indicated end-labeled oligonucleotides, in the presence of the murine PPAR GAMMA receptor, murine RXR ALPHA receptor, human REV-ERB ALPHA receptor produced by reticulocyte lysate, or non-programmed lysates (lysate). Binding competition experiments were performed by adding a 0, 10 or 100-fold excess of unlabeled Rev-DR2 oligonucleotide.
as §1
(§3) Lastly, binding of the PPAR GAMMA receptor to the Rev-DR2 site was studied. […]

PPAR GAMMA = PPAR GAMMA (Mus musculus, UniProt P37238 P37238:1-505); experiment: EMSA; PPAR gamma alone; settings: tags: pSG5-mPPAR-gamma, rabbit reticulocyte lysate; label: end-labeled
Method: as §2, §1, §3

REV-ERB ALPHA (NR1D1) = molecular target: T2, REV-ERB ALPHA (NR1D1) (Homo sapiens, UniProt P20393 SEQ:1-614); experiment: EMSA; binds as monomer and homodimer; settings: tags: expressed from pSG5-hRev-erb alpha, rabbit reticulocyte lysate; label: end-labeled
T2 sequence: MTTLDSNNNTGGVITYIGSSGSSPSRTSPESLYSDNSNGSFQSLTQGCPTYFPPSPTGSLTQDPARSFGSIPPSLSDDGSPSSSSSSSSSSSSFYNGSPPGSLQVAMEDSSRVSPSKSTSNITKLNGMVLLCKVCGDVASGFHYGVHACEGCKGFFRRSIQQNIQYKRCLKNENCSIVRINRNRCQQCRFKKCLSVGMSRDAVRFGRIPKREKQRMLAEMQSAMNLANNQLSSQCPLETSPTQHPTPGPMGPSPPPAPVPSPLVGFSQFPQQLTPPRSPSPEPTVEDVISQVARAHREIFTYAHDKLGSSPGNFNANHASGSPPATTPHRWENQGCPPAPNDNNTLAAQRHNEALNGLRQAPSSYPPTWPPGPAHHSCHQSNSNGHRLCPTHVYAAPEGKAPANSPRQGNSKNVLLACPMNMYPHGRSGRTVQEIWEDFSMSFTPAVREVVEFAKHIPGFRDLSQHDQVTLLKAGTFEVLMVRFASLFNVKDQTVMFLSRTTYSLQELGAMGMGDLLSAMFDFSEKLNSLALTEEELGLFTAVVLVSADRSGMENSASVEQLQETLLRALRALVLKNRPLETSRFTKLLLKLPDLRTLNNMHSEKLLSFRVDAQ
Method: as §2, §1, §3

B1: Rev-DR2 (dsDNA)
DNA 1: AAAAGTGTGTCACTGGGGCA
DNA 2: TGCCCCAGTGACACACTTTT
[1]
  binding result: binds
RXR ALPHA
  binding result: no binding
PPAR GAMMA
  binding result: no binding
REV-ERB ALPHA (NR1D1)
  binding result: binds
